Results reported in patent publication US11702666B2, “Cell-based assay for determining activity in the retinoblastoma pathway” (Medical Diagnostic Laboratories, LLC, priority 2017, dated 2023).
“Also recorded” adds a separate entry of the source.

System: Rb/E2F1-Dp-1 complex
Experiment: CDK4 mutant activity / drug resistance in NanoBiT assay, stable cell line #11
Assay type: cell-based, human
Conditions: for luciferase signal compared to WT CDK4 (in words): no drug; for Observed drug resist.: Palbociclib/Ribociclib, KD = kinase dead
Description: A linear expression cassette of mutated CDK4 or CDK6 was generated by PCR mediated overlapping extension method. A pair of forward and reverse primers containing the targeted mutations was designed. The mutated codon was located in the middle of a primer flanked by 18-21 nucleotides on each side. Two PCRs (named as PCR #1 and PCR #2 in FIG. 1) were performed using UF-CMV forward and mutated reverse primers, or mutated forward and BGH-UR primers. The PCR products were cleaned up by ExoSAP-IT® (Affymetrix) to remove unconsumed dNTPs and primers. The treated PCR products were mixed together followed by dilution with water. A second round of PCR was performed using the diluted PCR mixture, and the UF and UR primers (FIG. 1). The amplified products were gel-purified. The DNA concentration was quantitated by the optical density at 260 nm using Nanodrop. The targeted mutations were incorporated in the CDK4 or CDK6 genes during the PCR mediated overlapping extension method. The introduced mutations were confirmed by the DNA sequencing.
To examine the ability of the assay to detect variants in CDK4 or CDK6 that affect function, kinase dead mutants and COSMIC (Catalogue Of Somatic Mutations in cancer) unknown mutants were created. For comparison, hyperactive CDK4 or CDK6 mutants known to be hyperactive due to less binding to natural inhibitor p16 were also created. The mutations in CDK4 or CDK6 were created by site-directed mutagenesis. WT or mutated CDK4 or CDK6 along with the CyclinD1 and SB-Rb were co-transfected, under similar conditions as previously indicated (see FIG. 9).
To examine the specificity of the assay, particular CDK4 kinase dead mutants were created. Modifications to D158 were made by changing aspartate to nonpolar alanine (D158A) or positively charged arginine (D158R). […] The mutations in CDK4 were created by site-directed mutagenesis. WT or mutated CDK4 along with the CyclinD1 and SB-Rb was co-transfected into the #11 cell line, under the same conditions as previously indicated. […] Kinase dead mutants have the high signal due to inability to phosphorylate Rb.
Computer modeling was used to reveal the drug-binding pocket and predict drug-resistant mutants. The mutations in CDK4 and CDK6 were created by site-directed mutagenesis. WT or mutated CDK4 or CDK6 along with the CyclinD1 and SB-Rb was co-transfected into #11 cell line, under the same conditions as previously indicated. […] Dose response curves are presented on FIG. 13A and FIG. 13B. Activity of other mutants was very similar to the WT or KD.
CDK4 and CDK6 mutants with known function and unknown function taken from the COSMIC database were analyzed in the present assay and are summarized in Table 7A and Table 7B. The mutants were classified according to their activity. Table 7A and Table 7B also show the number of counts per mutant in the COSMIC database, type of cancer, and luciferase activity compared to the WT (being 100%).

[1] = predicted drug resistant CDK4 mutants, relative to WT
[2] = predicted drug resistant CDK4 mutants

B1: CDK4 R24C: hyperactive CDK4 mutant, COSMIC database (protein, UniProt P11802 2-303, looked up, variant R24C)
Cyclin-dependent kinase 4: ATSRYEPVAEIGVGAYGTVYKACDPHSGHFVALKSVRVPNGGGGGGGLPISTVREVALLRRLEAFEHPNVVRLMDVCATSRTDREIKVTLVFEHVDQDLRTYLDKAPPPGLPAETIKDLMRQFLRGLDFLHANCIVHRDLKPENILVTSGGTVKLADFGLARIYSYQMALTPVVVTLWYRAPEVLLQSTYATPVDMWSVGCIFAEMFRRKPLFCGNSEADQLGKIFDLIGLPPEDDWPRDVSLPRGAFPPRGPRPVQSVVPEMEESGAQLLLEMLTFNPHKRISAFRALQHSYLHKDEGNPE
Luc. activity (/wt) (CDK4 mutants, compared to the WT (being 100%)): 91% | luciferase signal compared to WT CDK4 (in words) (CDK4 mutants): a little bit lower basal signal than WT

B2: CDK4 T102K: predicted drug resistant CDK4 mutant (protein, UniProt P11802 2-303, looked up, variant T102K)
Cyclin-dependent kinase 4: ATSRYEPVAEIGVGAYGTVYKARDPHSGHFVALKSVRVPNGGGGGGGLPISTVREVALLRRLEAFEHPNVVRLMDVCATSRTDREIKVTLVFEHVDQDLRKYLDKAPPPGLPAETIKDLMRQFLRGLDFLHANCIVHRDLKPENILVTSGGTVKLADFGLARIYSYQMALTPVVVTLWYRAPEVLLQSTYATPVDMWSVGCIFAEMFRRKPLFCGNSEADQLGKIFDLIGLPPEDDWPRDVSLPRGAFPPRGPRPVQSVVPEMEESGAQLLLEMLTFNPHKRISAFRALQHSYLHKDEGNPE
Luc. activity (/wt) [1]: 162% | Observed drug resist. [2]: showed drug resistance; also recorded: Resistant

B3: CDK4 F931 T102K: CDK4 double mutant F93I and T102K (protein, UniProt P11802 2-303, looked up, variant F93I T102K)
Cyclin-dependent kinase 4: ATSRYEPVAEIGVGAYGTVYKARDPHSGHFVALKSVRVPNGGGGGGGLPISTVREVALLRRLEAFEHPNVVRLMDVCATSRTDREIKVTLVIEHVDQDLRKYLDKAPPPGLPAETIKDLMRQFLRGLDFLHANCIVHRDLKPENILVTSGGTVKLADFGLARIYSYQMALTPVVVTLWYRAPEVLLQSTYATPVDMWSVGCIFAEMFRRKPLFCGNSEADQLGKIFDLIGLPPEDDWPRDVSLPRGAFPPRGPRPVQSVVPEMEESGAQLLLEMLTFNPHKRISAFRALQHSYLHKDEGNPE
Luc. activity (/wt) [1]: 152% | Observed drug resist. [2]: Resistant

B4: CDK4 D158D: CDK4 control with one nucleotide substitution that did not change the amino acid (protein, UniProt P11802 2-303, looked up)
Cyclin-dependent kinase 4: ATSRYEPVAEIGVGAYGTVYKARDPHSGHFVALKSVRVPNGGGGGGGLPISTVREVALLRRLEAFEHPNVVRLMDVCATSRTDREIKVTLVFEHVDQDLRTYLDKAPPPGLPAETIKDLMRQFLRGLDFLHANCIVHRDLKPENILVTSGGTVKLADFGLARIYSYQMALTPVVVTLWYRAPEVLLQSTYATPVDMWSVGCIFAEMFRRKPLFCGNSEADQLGKIFDLIGLPPEDDWPRDVSLPRGAFPPRGPRPVQSVVPEMEESGAQLLLEMLTFNPHKRISAFRALQHSYLHKDEGNPE
modifications: silent D158D nucleotide variant
luciferase signal compared to WT CDK4 (in words) (CDK4 mutants): the same activity as a WT

B5: CDK4 F93I: predicted drug resistant CDK4 mutant (protein, UniProt P11802 2-303, looked up, variant F93I)
Cyclin-dependent kinase 4: ATSRYEPVAEIGVGAYGTVYKARDPHSGHFVALKSVRVPNGGGGGGGLPISTVREVALLRRLEAFEHPNVVRLMDVCATSRTDREIKVTLVIEHVDQDLRTYLDKAPPPGLPAETIKDLMRQFLRGLDFLHANCIVHRDLKPENILVTSGGTVKLADFGLARIYSYQMALTPVVVTLWYRAPEVLLQSTYATPVDMWSVGCIFAEMFRRKPLFCGNSEADQLGKIFDLIGLPPEDDWPRDVSLPRGAFPPRGPRPVQSVVPEMEESGAQLLLEMLTFNPHKRISAFRALQHSYLHKDEGNPE
Luc. activity (/wt) [1]: 157% | Observed drug resist. [2]: showed drug resistance; also recorded: Resistant
